Laboratory results as given in patent publication US20240342305A1 (published 2024).
Changes are numbered by the printed parent chain. Values belong to the binder of their own block, whether it stands above or below them.

Columns and labels:
[1] = molecular target: T1, recombinant human GPC1 (rhGPC1) (human, UniProt P35052 24-530, limits assumed); assay: ELISA, antigen coated 100 ng/well, HRP anti-human Fc detection
T1 sequence (looked up): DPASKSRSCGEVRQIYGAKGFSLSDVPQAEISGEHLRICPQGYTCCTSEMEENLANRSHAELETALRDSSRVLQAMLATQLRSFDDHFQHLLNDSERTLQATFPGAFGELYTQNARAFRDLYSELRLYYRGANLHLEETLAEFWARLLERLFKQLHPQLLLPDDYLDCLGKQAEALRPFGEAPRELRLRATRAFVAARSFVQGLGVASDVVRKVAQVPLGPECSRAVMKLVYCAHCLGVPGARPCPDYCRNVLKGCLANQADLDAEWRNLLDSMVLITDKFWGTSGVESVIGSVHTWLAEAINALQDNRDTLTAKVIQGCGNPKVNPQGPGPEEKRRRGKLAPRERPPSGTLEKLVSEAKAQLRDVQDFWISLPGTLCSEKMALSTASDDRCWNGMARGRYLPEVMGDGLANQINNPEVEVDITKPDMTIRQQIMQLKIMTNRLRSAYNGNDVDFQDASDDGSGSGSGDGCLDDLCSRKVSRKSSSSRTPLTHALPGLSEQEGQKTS
Protocol: (§1) In order to analyze the binding specificity of P7D4 series antibody to GPC3 protein, binding activity of P7D4 series single chain antibody to human GPC family members, including recombinant human GPC1 (rhGPC1), GPC2 (rhGPC2), GPC3 (rhGPC3), GPC5 (rhGPC5) and GPC6 (rhGPC6) (purchased from Andy Biosciences (Shanghai) Co., Ltd.) was detected by ELISA, respectively.
(§2) For this purpose, the above 5 antigens were diluted with 0.1 M NaHCO₃ (pH 9.6) coating solution and each well was coated with 100 ng at 50 μl/well overnight at 4° C. and blocked with 2% (w/v) BSA in PBST for 2 hours at room temperature. The plate was then rinsed for three times with PBST and PBST was removed. Subsequently, 100 ng of each antibody protein in PBST was added to each well plate, and the assay for each sample was performed in duplecate wells. After incubated for 2 hours at 37° C., the plates were rinsed for three times with PBST followed by addition of 100 μl/well HRP-labeled rabbit anti-human Fc antibody (purchased from Shanghai Rui Jin Biotechnology Co., Ltd.) diluted at 1:20000 and incubated at 37° C. for 1 hour. For detection, wells were rinsed for three times with PBST followed by three times with PBS and finally with TMB for development for 10 min. The chromogenic reaction was stopped with 50 μl of 2 M H₂SO₄ per well, and extinction value was measured at 450 nm with enzyme-linked immunodetector (Bio-Rad).

[2] = molecular target: T2, recombinant human GPC2 (rhGPC2) (human, UniProt Q8N158 24-554, limits assumed); assay: as above
T2 sequence (looked up): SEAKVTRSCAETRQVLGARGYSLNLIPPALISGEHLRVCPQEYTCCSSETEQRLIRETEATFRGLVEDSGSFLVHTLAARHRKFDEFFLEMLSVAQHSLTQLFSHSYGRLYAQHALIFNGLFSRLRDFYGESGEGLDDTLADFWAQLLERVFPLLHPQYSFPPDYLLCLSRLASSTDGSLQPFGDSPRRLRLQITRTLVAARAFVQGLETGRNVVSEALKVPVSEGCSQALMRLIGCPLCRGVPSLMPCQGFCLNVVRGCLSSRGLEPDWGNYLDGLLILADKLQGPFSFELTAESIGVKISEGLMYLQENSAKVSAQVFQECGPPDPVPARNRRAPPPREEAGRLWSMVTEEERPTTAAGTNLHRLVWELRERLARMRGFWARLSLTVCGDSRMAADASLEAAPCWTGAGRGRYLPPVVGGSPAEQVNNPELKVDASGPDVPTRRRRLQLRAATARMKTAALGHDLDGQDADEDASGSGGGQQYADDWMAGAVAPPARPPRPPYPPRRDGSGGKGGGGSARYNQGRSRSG
Protocol: as §1, §2

[3] = molecular target: T3, recombinant human GPC6 (rhGPC6) (human, UniProt Q9Y625 24-529, limits assumed); assay: as above
T3 sequence (looked up): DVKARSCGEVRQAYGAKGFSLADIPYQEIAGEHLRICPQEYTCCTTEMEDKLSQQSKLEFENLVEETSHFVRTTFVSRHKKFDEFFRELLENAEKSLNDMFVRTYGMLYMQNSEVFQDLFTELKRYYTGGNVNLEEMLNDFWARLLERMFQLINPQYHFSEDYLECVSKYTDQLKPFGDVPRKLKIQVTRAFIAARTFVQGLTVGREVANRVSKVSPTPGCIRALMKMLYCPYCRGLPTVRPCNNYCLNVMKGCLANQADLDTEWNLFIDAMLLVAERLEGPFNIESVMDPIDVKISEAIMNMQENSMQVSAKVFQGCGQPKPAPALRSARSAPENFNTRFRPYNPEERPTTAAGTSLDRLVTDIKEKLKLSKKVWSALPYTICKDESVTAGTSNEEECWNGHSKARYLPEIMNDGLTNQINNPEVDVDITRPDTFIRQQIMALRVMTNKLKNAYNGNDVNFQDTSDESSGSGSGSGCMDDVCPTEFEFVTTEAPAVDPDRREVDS
Protocol: as §1, §2

[4] = molecular target: T4, recombinant human GPC5 (rhGPC5) (human, UniProt P78333 25-551, limits assumed); assay: as above
T4 sequence (looked up): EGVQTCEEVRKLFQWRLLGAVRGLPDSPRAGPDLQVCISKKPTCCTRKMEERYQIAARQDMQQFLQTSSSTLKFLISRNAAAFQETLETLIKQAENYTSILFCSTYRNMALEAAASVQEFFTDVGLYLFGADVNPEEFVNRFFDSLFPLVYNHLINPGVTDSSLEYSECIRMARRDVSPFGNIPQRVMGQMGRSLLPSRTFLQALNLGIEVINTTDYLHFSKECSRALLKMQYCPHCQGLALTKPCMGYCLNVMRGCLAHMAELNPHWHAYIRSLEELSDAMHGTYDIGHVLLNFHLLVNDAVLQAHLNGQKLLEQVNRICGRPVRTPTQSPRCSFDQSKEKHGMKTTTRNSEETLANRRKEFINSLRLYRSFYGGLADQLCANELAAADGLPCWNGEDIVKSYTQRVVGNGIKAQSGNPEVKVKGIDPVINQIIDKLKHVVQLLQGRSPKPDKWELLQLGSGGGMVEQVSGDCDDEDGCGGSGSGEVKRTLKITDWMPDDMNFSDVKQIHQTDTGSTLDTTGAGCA
Protocol: as §1, §2

[5] = molecular target: T5, human GPC3 recombinant protein (purchased from Shanghai Rui Jin Biotechnology Co., Ltd.) (human, UniProt P51654 25-559, limits assumed); assay: SPR Biacore T200, antibody captured by anti-human IgG (Fc), GPC3 as analyte, single-cycle kinetics, 25 °C
T5 construct: Bought recombinant protein; also called huGPC3; antigen GPC3
Protocol: To quantitatively analyze the binding of P7D4 series antibodies to GPC3, the affinity and kinetic parameters of P7D4 series single-chain antibodies were measured by capture method using Biacore T200 system (from GE). An anti-human IgG (Fc) antibody (purchased from GE) was coupled to carboxymethyl dextran surface of sensor chip CM5 through primary amino with NHS/EDC coupling according to the manufacturer's instructions. Measurements were performed in 1×HBS-EP+working buffer at 25° C., 30 μl/min, and regeneration condition was 3 M MgCl₂, 10 μl/min for 30 seconds. In each round of the testing cycle, the antibody to be tested is firstly captured onto the chip. GPC3 of a certain concentration flowed over the chip surface. The interaction between human GPC3 and the captured antibody caused the change of the molecular concentration on the surface of the sensor chip which was measured according to changes in SPR Signal and expressed in resonance units (RU). Time vs resonance unit (RU) was plotted. The resulting sensorgram documents the entire reaction including the binding and dissociation processes (FIG. 4). In all single-cycle kinetics, GPC3 concentrations were 5 nM, 10 nM, 20 nM, 40 nM and 80 nM, respectively. The resulting curves were evaluated using Biacore T200 evaluation software and the affinity KD values were calculated.

B1: P7D4 mutant single chain antibody am4 (scFv, not shown: a dimerising Fc or GST)
scFv: QVQLQESGGGLVQPGRSLRLSCAASGFTFSTYAMTWVRQAPGKGLEWVSSISSSGESTYYADSVKGRFTISRDNSKNTLYLQMNSLRAEDTAVYYCAKDRRGSHADAFDVWGQGTLVTVSSGGGGSGGGGSGGGGSQSALTQPPSASGSPGQSVTISCTGTSSDVGGYNYVSWYQQYPGKAPKLLIYGNSNRPSGVPDRFSGSKSGTSASLAITGLQAEDGADYYCQSYDSSLRVVFGGGTKVTVLG
binding result [1]: no binding (tested: 100 ng of each antibody protein per well)
binding result [2]: no binding (tested: 100 ng of each antibody protein per well)
binding result [3]: no binding (tested: 100 ng of each antibody protein per well)
binding result [4]: no binding (tested: 100 ng of each antibody protein per well)
Kd [5]: 0.0756 nM
koff [5]: 4.08e-05 s⁻¹
kon [5]: 539000 M⁻¹ s⁻¹

B3: P7D4 mutant single chain antibody T2-23 (scFv, not shown: a dimerising Fc or GST)
scFv: B1 scFv with T31S, T35H, S50A, E56R, K65E, F108L, D109N
binding result [1]: no binding (tested: 100 ng of each antibody protein per well)
binding result [2]: no binding (tested: 100 ng of each antibody protein per well)
binding result [3]: no binding (tested: 100 ng of each antibody protein per well)
binding result [4]: no binding (tested: 100 ng of each antibody protein per well)

Continued, in another order:

Kd [5]: 0.0646 nM
koff [5]: 4.43e-05 s⁻¹
kon [5]: 673000 M⁻¹ s⁻¹
B2: P7D4 mutant single chain antibody am14 (scFv, not shown: a dimerising Fc or GST)
scFv: B1 scFv with T35A, S50E, E56S, S57R
binding result [1]: no binding (tested: 100 ng of each antibody protein per well)
binding result [2]: no binding (tested: 100 ng of each antibody protein per well)
binding result [3]: no binding (tested: 100 ng of each antibody protein per well)
binding result [4]: no binding (tested: 100 ng of each antibody protein per well)

Kd [5]: 0.0821 nM
koff [5]: 6.7e-05 s⁻¹
kon [5]: 816000 M⁻¹ s⁻¹
B4: P7D4 mutant single chain antibody am42 (scFv, not shown: a dimerising Fc or GST)
scFv: QVQLQESGGGLVQPGRSLRLSCAASGFTFSSYAMHWVRQAPGKGLEWVSAISSSGGSTYYADSVKGRFTISRDNSKNTLYLQMNSLRAEDTAVYYCAKDRRGSHADAFDVWGQGTLVTVSSGGGGSGGGGSGGGGSQSALTQPPSASGSPGQSVTISCTGTSSDVGLMHNVSWYQQYPGKAPKLLIYKSSSRPSGVPDRFSGSKSGTSASLAITGLQAEDGADYYCQSYDSSLRVVFGGGTKVTVLG
binding result [1]: no binding (tested: 100 ng of each antibody protein per well)
binding result [2]: no binding (tested: 100 ng of each antibody protein per well)
binding result [3]: no binding (tested: 100 ng of each antibody protein per well)
binding result [4]: no binding (tested: 100 ng of each antibody protein per well)

Kd [5]: 0.306 nM
koff [5]: 6.47e-05 s⁻¹
kon [5]: 212000 M⁻¹ s⁻¹
B5: P7D4 mutant single chain antibody am20 (scFv, not shown: a dimerising Fc or GST)
scFv: B1 scFv with T35N, S50A, S53M
binding result [1]: no binding (tested: 100 ng of each antibody protein per well)
binding result [2]: no binding (tested: 100 ng of each antibody protein per well)
binding result [3]: no binding (tested: 100 ng of each antibody protein per well)
binding result [4]: no binding (tested: 100 ng of each antibody protein per well)

Kd [5]: 0.0714 nM
koff [5]: 5.2e-05 s⁻¹
kon [5]: 738000 M⁻¹ s⁻¹
B6: P7D4 mutant single chain antibody am35 (scFv, not shown: a dimerising Fc or GST)
scFv: B4 scFv with L167H, M168K, H169F, N170P, S189N, S190L, S191L
binding result [1]: no binding (tested: 100 ng of each antibody protein per well)
binding result [2]: no binding (tested: 100 ng of each antibody protein per well)
binding result [3]: no binding (tested: 100 ng of each antibody protein per well)
binding result [4]: no binding (tested: 100 ng of each antibody protein per well)
